# According to paper doi:10.1101/2025.07.02.662585 (bioRxiv, 2025):
# T1: Avo3 (yeast (endogenous in yeast cells), UniProt P40061 1-1430)
# T1 sequence: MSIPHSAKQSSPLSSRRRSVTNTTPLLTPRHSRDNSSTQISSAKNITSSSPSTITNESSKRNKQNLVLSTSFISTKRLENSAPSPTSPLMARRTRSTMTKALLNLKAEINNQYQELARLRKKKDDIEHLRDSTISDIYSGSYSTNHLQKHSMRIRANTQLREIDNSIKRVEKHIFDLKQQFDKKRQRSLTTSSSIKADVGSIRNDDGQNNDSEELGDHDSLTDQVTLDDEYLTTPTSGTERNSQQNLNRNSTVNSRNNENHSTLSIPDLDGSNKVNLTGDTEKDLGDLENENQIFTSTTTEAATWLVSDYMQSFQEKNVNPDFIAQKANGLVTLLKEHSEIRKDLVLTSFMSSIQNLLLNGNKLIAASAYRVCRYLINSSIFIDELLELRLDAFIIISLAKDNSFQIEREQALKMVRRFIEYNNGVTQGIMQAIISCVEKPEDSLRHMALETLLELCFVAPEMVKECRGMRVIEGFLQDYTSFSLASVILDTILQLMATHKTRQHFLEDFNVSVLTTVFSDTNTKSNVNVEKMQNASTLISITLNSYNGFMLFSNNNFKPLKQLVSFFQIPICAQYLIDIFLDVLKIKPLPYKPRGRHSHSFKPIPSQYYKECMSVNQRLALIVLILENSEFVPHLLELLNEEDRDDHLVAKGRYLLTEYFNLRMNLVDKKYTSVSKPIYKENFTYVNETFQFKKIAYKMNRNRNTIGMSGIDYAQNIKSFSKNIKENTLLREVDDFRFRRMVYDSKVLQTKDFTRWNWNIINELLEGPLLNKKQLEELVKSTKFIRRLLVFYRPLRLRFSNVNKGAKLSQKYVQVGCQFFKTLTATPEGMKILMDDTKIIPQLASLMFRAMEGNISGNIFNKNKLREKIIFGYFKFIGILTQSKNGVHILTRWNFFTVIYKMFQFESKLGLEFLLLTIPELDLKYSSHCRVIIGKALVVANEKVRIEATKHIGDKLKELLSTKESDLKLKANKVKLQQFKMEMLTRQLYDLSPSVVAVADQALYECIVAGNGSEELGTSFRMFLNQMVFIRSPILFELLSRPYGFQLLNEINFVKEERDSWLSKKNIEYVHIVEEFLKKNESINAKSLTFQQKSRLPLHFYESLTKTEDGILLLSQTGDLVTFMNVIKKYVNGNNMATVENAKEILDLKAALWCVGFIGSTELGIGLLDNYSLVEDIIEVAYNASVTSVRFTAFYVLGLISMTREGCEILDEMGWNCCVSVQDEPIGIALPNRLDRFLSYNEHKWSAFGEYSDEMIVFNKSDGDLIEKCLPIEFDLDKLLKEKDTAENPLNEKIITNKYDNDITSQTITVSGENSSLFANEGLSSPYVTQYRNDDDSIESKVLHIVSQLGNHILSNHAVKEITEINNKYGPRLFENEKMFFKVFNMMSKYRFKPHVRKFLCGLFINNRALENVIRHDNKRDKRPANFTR
# B1: Avo1 (natural protein)
# chain: MDTVTVLNELRAQFLRVCPEKDQMKRIIKPYIPVDEFNTEQCLDSSIRELYMNSDGVSLLPELESPPVSKDFMENYASLGKMRIMRENEGQKGKANQNLIGAEKTERDEEETRNLQDKSAKNTLIVEENGTLRYNPLNSSASNSLLNDDDHTSGKHHKTSSKEDSYLNSSMEMQKKSSKRSSLPFVRIFKSRRDHSNTSGNKNVMNTTNTRAKSSTLHPPGARHNKKGSKFDMNFDFDENLEEEDDDDDDDEEGDDIHSQFFQLDDDFDAKGSGASPAHKGINGMSNNKNNTYTNNRNSISILDDRESSNGNIGSASRLKSHFPTSQKGKIFLTDNKNDGQKSDSLNANKGIHGDGSSASGNGSVSRDGLTETESNNISDMESYINEKDLDDLNFDTVTSNINKTVSDLGGHESTNDGTAVMNRDSKDSRSNSNEFNAQNRDRITPGSSYGKSLLGSEYSEERYSNNDSSTMESGEMSLDSDMQTNTIPSHSIPMSMQKYGIYHGDDDSTLNNVFDKAVLTMNSSRHPKERRDTVISGKEPTSLTSSNRKFSVSSNLTSTRSPLLRGHGRTSSTASSEHMKAPKVSDSVLHRARKSTLTLKQDHSQPSVPSSVHKSSKEGNILIEKTTDYLVSKPKASQLSNMFNKKKKRTNTNSVDVLEYFSFVCGDKVPNYESMGLEIYIQASKKYKRNSFTTKVRKSSTIFEVIGFALFLYSTEKKPDNFEEDGLTVEDISNPNNFSLKIVDEDGEPFEDNFGKLDRKSTIQSISDSEVVLCKVDDAEKSQNEIETPLPFETGGGLMDASTLDANSSHDTTDGTINQLSFYKPIIGNEDDIDKTNGSKIIDVTVYLYPNVNPKFNYTTISVLVTSHINDILVKYCKMKNMDPNEYALKVLGKNYILDLNDTVLRLDGINKVELISKKDARELHLEKMKPDLKKPVLPTIQSNDLTPLTLEPLNSYLKADAGGAVAAIPENTKVTSKAKKISTKYKLGLAKQHSSSSVASGSVSTAGGLANGNGFFKNKNSSKSSLHGTLQFHNINRSQSTMEHTPDTPNGVGDNFQDLFTGAYHKYKVWRRQQMSFINKHERTLAIDGDYIYIVPPEGRIHWHDNVKTKSLHISQVVLVKKSKRVPEHFKIFVRREGQDDIKRYYFEAVSGQECTEIVTRLQNLLSAYRMNHK
# What was measured:
# Avo3 = molecular target: T1, Avo3; assay: cryo-EM structure
# Avo1 = molecular target: B1; assay: cryo-EM structure
binder,measurement,setting,value
B1,binding result,Avo3,binds
Lst8 (natural protein) MSVILVSAGYDHTIRFWEALTGVCSRTIQHSDSQVNRLEITNDKKLLATAGHQNVRLYDIRTTNPNPVASFEGHRGNVTSVSFQQDNRWMVTSSEDGTIKVWDVRSPSIPRNYKHNAPVNEVVIHPNQGELISCDRDGNIRIWDLGENQCTHQLTPEDDTSLQSLSMASDGSMLAAANTKGNCYVWEMPNHTDASHLKPVTKFRAHSTYITRILLSSDVKHLATCSADHTARVWSIDDDFKLETTLDGHQRWVWDCAFSADSAYLVTASSDHYVRLWDLSTREIVRQYGGHHKGAVCVALNDV,binding result,Avo1,binds
Bit61 (natural protein) MTAEDILLRERTSTTTQRPVNSEQYLNVQLATAPVKNFQTTSEISRQTLVDTSNDDVYSIKNLKGSRNPISPSVSNVGFQSIFHTVDHPRSKVSVASNHSLRSNDNASAATSKSGSSQIGESHSVDTVECSNNLSKKLSSDAISITQKSLHSTPSGRYMKGKASGFFNRRNRAHTTISSDPASFLTDSSTLHNSSHSFRNVIKNFFQNKSHRHIGQDAIEPAIPNSLSKFLHSSYGRHKSPSQFIHTNAGQLVDSGTSVYSLNVNPSGVNPNTIVEDPLSGTDPASPNPVSMLHDLLRNLPSLEANYKHFNSQELTTLTNNIWNIFCSNVAELFRTQRIWKLRAKIENFNEVLEFYCILKTDPRVTHSGMNRIISDLKEFLVSSLYNLENQIVFNYSNEDTINNALKRLGVIWRIFYQEVYYDLAAVLLPLDQSIREDGNSTVLKSGNESRTHINGNYSIGFLLLMCFRDSIVLPCYENFVNSNDGISKSFQLYIFNQEEESNVTETDKLTLLQCFGILSTIQSNDRNQRIIEELLAGIRMSI,binding result,Avo3,binds
Avo2 (natural protein) MLKEPSVRLREAIIEGNLLIVKRLLRRNPDLLTNIDSENGWSSLHYASYHGRYLICVYLIQLGHDKHELIKTFKGNTCVHLALMKGHEQTLHLLLQQFPRFINHRGENGRAPIHIACMNDYYQCLSLLIGVGADLWVMDTNGDTPLHVCLEYGSISCMKMLLNEGEVSLDDNVRDKGNWKPIDVAQTFEVGNIYSKVLKEVKKKGPPLGAGKKPSSFRTPILNAKATFEDGPSPVLSMNSPYSLYSNNSPLPVLPRRISTHTTSGNGGNRRSSITNPVFNPRKPTLSTDSFSSSSNSSSRLRVNSINVKTPVGVSPKKELVSESVRHSATPTSPHNNIALINRYLLPNKSNDNVRGDSQTATINDDGGGGNGGDATIGMGLRKDPDDENENKYKIKVNNGEPRRRVSLLNIPISKLRNSNNTRAED,binding result,Avo3,binds
